Kd data for 1 substance are collected here from PMC2199739.

In experiment [1] the target is human uPAR overexpressed on MCF-7 cells (clone M5) (human) (UniProt Q03405). Description: radioligand binding.
The target in experiment [2] is urokinase-type plasminogen activator receptor (uPAR) on HT 1080 cells (human (endogenous in HT 1080)) (UniProt Q03405). Put plainly: radioligand binding.

Usually Kd stands for a measure of binding affinity in units of concentration. A high value points to lower affinity. On to “^125I-DIP-uPA (radioiodinated two chain urokinase-type plasminogen activator inactivated with diisopropylfluorophosphate) (ligand)”, for which the Kd in experiment [1] and in experiment [2] was 1.2 nM throughout.
